Measurements reported in article doi:10.1101/2021.05.24.445485.

Target: Escherichia coli MRE600 30S ribosomal subunits (E. coli)
Experiment: ITC

Kd: 806 nM
B1: initiation factor IF1 (natural protein)
chain: MAKEDNIEMQGTVLETLPNTMFRVELENGHVVTAHISGKMRKNYIRILTGDKVTVELTPYDLSKGRIVFRSR
